Assay results as given in PMC10397247.

Key:
Experiment in all cases: two-hybrid library CCNG1;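 further: natural log of median RNA to DNA barcode read ratio; higher means stronger binding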
4H1985-bA = target: T1, 4H1985-bA
T1 chain: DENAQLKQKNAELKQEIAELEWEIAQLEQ

4H3129-bA = target: T2, 4H3129-bA
T2 chain: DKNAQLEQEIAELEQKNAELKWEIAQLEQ

4H3162-bA = target: T3, 4H3162-bA
T3 chain: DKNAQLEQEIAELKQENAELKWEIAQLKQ

4H3172-bA = target: T4, 4H3172-bA
T4 chain: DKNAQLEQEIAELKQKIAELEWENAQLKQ

4H3175-bA = target: T5, 4H3175-bA
T5 chain: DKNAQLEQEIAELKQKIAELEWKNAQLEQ

4H3277-bA = target: T6, 4H3277-bA
T6 chain: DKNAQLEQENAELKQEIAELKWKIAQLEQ

4H3298-bA = target: T7, 4H3298-bA
T7 chain: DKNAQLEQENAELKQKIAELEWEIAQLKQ

4H3414-bA = target: T8, 4H3414-bA
T8 chain: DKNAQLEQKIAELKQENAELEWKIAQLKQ

4H3462-bA = target: T9, 4H3462-bA
T9 chain: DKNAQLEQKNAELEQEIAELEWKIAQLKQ

4H3497-bA = target: T10, 4H3497-bA
T10 chain: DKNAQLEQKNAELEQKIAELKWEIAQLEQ

4H3613-bA = target: T11, 4H3613-bA
T11 chain: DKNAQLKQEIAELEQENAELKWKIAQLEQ

4H3628-bA = target: T12, 4H3628-bA
T12 chain: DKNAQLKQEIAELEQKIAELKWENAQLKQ

4H3631-bA = target: T13, 4H3631-bA
T13 chain: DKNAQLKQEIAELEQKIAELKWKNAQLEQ

4H3638-bA = target: T14, 4H3638-bA
T14 chain: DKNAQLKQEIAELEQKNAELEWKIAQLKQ

4H3817-bA = target: T15, 4H3817-bA
T15 chain: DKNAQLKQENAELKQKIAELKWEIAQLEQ

4H3858-bA = target: T16, 4H3858-bA
T16 chain: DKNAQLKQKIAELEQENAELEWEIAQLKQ

4H3926-bA = target: T17, 4H3926-bA
T17 chain: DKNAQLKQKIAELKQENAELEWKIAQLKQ

4H3974-bA = target: T18, 4H3974-bA
T18 chain: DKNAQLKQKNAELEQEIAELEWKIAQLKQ

4H570-bA = target: T19, 4H570-bA
T19 chain: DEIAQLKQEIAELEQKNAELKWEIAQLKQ

4H570-bH = target: T20, 4H570-bH
T20 chain: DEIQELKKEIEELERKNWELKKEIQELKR

4H584-bA = target: T21, 4H584-bA
T21 chain: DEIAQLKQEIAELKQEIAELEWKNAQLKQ

4H591-bA = target: T22, 4H591-bA
T22 chain: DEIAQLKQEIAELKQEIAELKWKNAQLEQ

4H619-bA = target: T23, 4H619-bA
T23 chain: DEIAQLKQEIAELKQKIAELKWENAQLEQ

4H626-bA = target: T24, 4H626-bA
T24 chain: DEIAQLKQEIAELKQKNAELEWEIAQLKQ

4H850-bA = target: T25, 4H850-bA
T25 chain: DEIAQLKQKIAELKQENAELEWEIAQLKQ

4H906-bA = target: T26, 4H906-bA
T26 chain: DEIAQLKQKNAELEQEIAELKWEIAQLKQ

4H953-bA = target: T27, 4H953-bA
T27 chain: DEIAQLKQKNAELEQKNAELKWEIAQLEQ

O8-bN = target: T28, O8-bN
T28 chain: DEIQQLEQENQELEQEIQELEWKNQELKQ

4H1899-bA = target: T29, 4H1899-bA
T29 chain: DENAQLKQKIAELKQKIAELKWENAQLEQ

4H2586-bN = target: T30, 4H2586-bN
T30 chain: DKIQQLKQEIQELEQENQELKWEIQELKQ

4H3858-bN = target: T31, 4H3858-bN
T31 chain: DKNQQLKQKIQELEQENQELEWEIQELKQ

4H3974-bN = target: T32, 4H3974-bN
T32 chain: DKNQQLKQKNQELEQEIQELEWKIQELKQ

4H570-bN = target: T33, 4H570-bN
T33 chain: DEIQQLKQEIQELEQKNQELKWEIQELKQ

4H850-bN = target: T34, 4H850-bN
T34 chain: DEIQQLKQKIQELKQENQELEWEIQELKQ

O15 = target: T35, O15
T35 chain: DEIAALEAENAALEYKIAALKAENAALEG

O16-bS = target: T36, O16-bS
T36 chain: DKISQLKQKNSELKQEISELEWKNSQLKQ

O2-bS = target: T37, O2-bS
T37 chain: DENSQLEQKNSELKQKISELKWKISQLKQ

O3-bS = target: T38, O3-bS
T38 chain: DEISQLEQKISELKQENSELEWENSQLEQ

O4-bS = target: T39, O4-bS
T39 chain: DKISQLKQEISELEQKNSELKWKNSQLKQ

O5-bS = target: T40, O5-bS
T40 chain: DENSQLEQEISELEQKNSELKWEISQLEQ

O6-bS = target: T41, O6-bS
T41 chain: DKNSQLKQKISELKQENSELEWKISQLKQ

O7-bS = target: T42, O7-bS
T42 chain: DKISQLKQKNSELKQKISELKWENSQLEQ

O8-bS = target: T43, O8-bS
T43 chain: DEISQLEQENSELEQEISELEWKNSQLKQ

4H3907-bH = target: T44, 4H3907-bH
T44 chain: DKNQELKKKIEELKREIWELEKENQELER

4H3961-bH = target: T45, 4H3961-bH
T45 chain: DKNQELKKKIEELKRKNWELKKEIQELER

4H4038-bH = target: T46, 4H4038-bH
T46 chain: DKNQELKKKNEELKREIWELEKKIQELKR

4H470-bH = target: T47, 4H470-bH
T47 chain: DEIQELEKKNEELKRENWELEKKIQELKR

4H363-bN = target: T48, 4H363-bN
T48 chain: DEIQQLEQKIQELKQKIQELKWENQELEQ

4H3907-bN = target: T49, 4H3907-bN
T49 chain: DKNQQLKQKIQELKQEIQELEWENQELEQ

4H3961-bN = target: T50, 4H3961-bN
T50 chain: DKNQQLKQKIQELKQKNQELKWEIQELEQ

4H470-bN = target: T51, 4H470-bN
T51 chain: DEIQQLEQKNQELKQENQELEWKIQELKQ

P4A = target: T52, P4A
T52 chain: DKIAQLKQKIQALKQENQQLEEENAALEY

P5A = target: T53, P5A
T53 chain: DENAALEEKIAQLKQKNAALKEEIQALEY

P6A = target: T54, P6A
T54 chain: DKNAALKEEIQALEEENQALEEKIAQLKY

P7A = target: T55, P7A
T55 chain: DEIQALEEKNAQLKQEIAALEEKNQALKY

P8A = target: T56, P8A
T56 chain: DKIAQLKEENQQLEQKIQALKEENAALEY

P9A = target: T57, P9A
T57 chain: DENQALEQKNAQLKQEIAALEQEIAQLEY

P5mSN = target: T58, P5mSN
T58 chain: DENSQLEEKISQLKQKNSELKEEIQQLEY

P6mSN = target: T59, P6mSN
T59 chain: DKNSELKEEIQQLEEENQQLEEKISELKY

P7mSN = target: T60, P7mSN
T60 chain: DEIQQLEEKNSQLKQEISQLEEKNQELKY

P8mSN = target: T61, P8mSN
T61 chain: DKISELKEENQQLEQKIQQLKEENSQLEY

## DENAQLKQKNAELKQEIAELEWEIAQLEQ [4H1985-bA]
4H1985-bA
  interaction score: -0.898
4H3129-bA
  interaction score: -1.14
4H3162-bA
  interaction score: -1.66
4H3172-bA
  interaction score: -0.781
4H3175-bA
  interaction score: -1.53
4H3277-bA
  interaction score: -0.983
4H3298-bA
  interaction score: -0.906
4H3414-bA
  interaction score: -1.09
4H3462-bA
  interaction score: -0.708
4H3497-bA
  interaction score: -1.03
4H3613-bA
  interaction score: -1.14
4H3628-bA
  interaction score: -1.35
4H3631-bA
  interaction score: -1.21
4H3638-bA
  interaction score: -0.944
4H3817-bA
  interaction score: -0.287
4H3858-bA
  interaction score: -1.31
4H3926-bA
  interaction score: -1.07
4H3974-bA
  interaction score: -0.265
4H570-bA
  interaction score: -1.97
4H570-bH
  interaction score: -0.714
4H584-bA
  interaction score: -1.42
4H591-bA
  interaction score: -1.46
4H619-bA
  interaction score: -0.916
4H626-bA
  interaction score: -1.19
4H850-bA
  interaction score: -1.45
4H906-bA
  interaction score: -1.08
4H953-bA
  interaction score: -1.8
O8-bN
  interaction score: -2.01

## DENAQLKQKIAELKQKIAELKWENAQLEQ [4H1899-bA]
4H1899-bA
  interaction score: -0.612
4H1985-bA
  interaction score: 0.619
4H2586-bN
  interaction score: -1.99
4H3162-bA
  interaction score: -1.28
4H3175-bA
  interaction score: -1.03
4H3277-bA
  interaction score: -1.41
4H3298-bA
  interaction score: -0.142
4H3462-bA
  interaction score: -0.31
4H3497-bA
  interaction score: -0.482
4H3613-bA
  interaction score: -1.23
4H3628-bA
  interaction score: 0.582
4H3817-bA
  interaction score: -0.216
4H3858-bA
  interaction score: -0.565
4H3926-bA
  interaction score: -1.03
4H3974-bA
  interaction score: -0.528
4H570-bA
  interaction score: 0.517
4H591-bA
  interaction score: -1.45
4H626-bA
  interaction score: -1.38
4H850-bA
  interaction score: -0.973
4H906-bA
  interaction score: -0.765

## DKNQQLKQKIQELEQENQELEWEIQELKQ [4H3858-bN]
4H3858-bN
  interaction score: -0.115
4H3974-bN
  interaction score: -1.21
4H570-bN
  interaction score: 0.143
4H850-bN
  interaction score: -1.15
O15
  interaction score: -1.67

## DKISQLKQKNSELKQEISELEWKNSQLKQ [O16-bS]
O16-bS
  interaction score: -1.23
O2-bS
  interaction score: -0.368
O3-bS
  interaction score: -1.15
O4-bS
  interaction score: -0.194
O5-bS
  interaction score: -3.22
O6-bS
  interaction score: -0.0299
O7-bS
  interaction score: -0.709
O8-bS
  interaction score: -1.97

## DKNQELKKKIEELKREIWELEKENQELER [4H3907-bH]
4H3907-bH
  interaction score: 0.462
4H3961-bH
  interaction score: -0.402
4H4038-bH
  interaction score: -0.272
4H470-bH
  interaction score: -0.458

## DEIQQLEQKIQELKQKIQELKWENQELEQ [4H363-bN]
4H363-bN
  interaction score: 0.903
4H3907-bN
  interaction score: 0.321
4H3961-bN
  interaction score: -0.162
4H470-bN
  interaction score: -0.702

## DKIAQLKQKIQALKQENQQLEEENAALEY [P4A]
P4A
  interaction score: -2.18
P5A
  interaction score: -2.12
P6A
  interaction score: -1.35
P7A
  interaction score: -2.13
P8A
  interaction score: -1.42
P9A
  interaction score: -1.08

## DENSQLEEKISQLKQKNSELKEEIQQLEY [P5mSN]
P5mSN
  interaction score: -1.4
P6mSN
  interaction score: 0.0393
P7mSN
  interaction score: -0.763
P8mSN
  interaction score: -0.632

## DKNQELKKKNEELKREIWELEKKIQELKR [4H4038-bH]
4H4038-bH
  interaction score: 0.656
